# Earlier results in paper PMC10966181.
# Molecular target: Tyr159 (UniProt position 159, ISIHVYGANIG)
# Assay: kinetics
# Conditions: Catalytically active Fe(II)-MDO turning over the substrate 3MPA
substance,measurement,value
3-mercaptopropionate dioxygenase (MDO) H157N variant (Azotobacter vinelandii; H157N),pKa,9.9 ± 0.1
"3-mercaptopropionate dioxygenase (MDO, AvMDO) (Azotobacter vinelandii)",pKa,9.2 ± 0.1
